Biological target: APOBEC3G (A3G) protein, Q9HC16
Test: AFM topographic imaging (protein volume); A3G mixed 2:1 with hybrid DNA substrate (418 bp duplex with 69 nt ssDNA overhang, deaminase specific or nonspecific) in 50 mM HEPES pH 7.5, 100 mM NaCl, 5 mM MgCl2, 1 mM DTT, 15 min at 37 °C; deposited on APS-mica, imaged in air; protein volume converted to mass; stoichiometry of A3G on the ssDNA
Settings: remark: other sources report otherwise

B1: APOBEC3G (A3G) protein, Q9HC16 1-384 (enzyme)
chain: MKPHFRNTVERMYRDTFSYNFYNRPILSRRNTVWLCYEVKTKGPSRPPLDAKIFRGQVYSELKYHPEMRFFHWFSKWRKLHRDQEYEVTWYISWSPCTKCTRDMATFLAEDPKVTLTIFVARLYYFWDPDYQEALRSLCQKRDGPRATMKIMNYDEFQHCWSKFVYSQRELFEPWNNLPKYYILLHIMLGEILRHSMDPPTFTFNFNNEPWVRGRHETYLCYEVERMHNDTWVLLNQRRGFLCNQAPHKHGFLEGRHAELCFLDVIPFWKLDLDQDYRVTCFTSWSPCFSCAQEMAKFISKNKHVSLCIFTARIYDDQGRCQEGLRTLAEAGAKISIMTYSEFKHCWDTFVDHQGCPFQPWDGLDEHSQDLSGRLRAILQNQEN
- stoichiometry N: 2
